Experimental data published in paper PMC10385363, “Enhancing the Catalytic Activity of Glycolate Oxidase from Chlamydomonas reinhardtii through Semi-Rational Design” (Microorganisms, 2023).
Values belong to the molecule of their own block, whether it stands above or below them.

Tests used:
[1] = biological target: T1, GST-GSG-CreGO (glycolate oxidase CreGO) (Chlamydomonas reinhardtii, UniProt F8WQN2, Y27S/V111G, form not given); details: read-out: GST-GSG-CreGO-Y27S/V212R/V111G; 10 mM phenylhydrazine, 100 mM PBS pH 6.5, 40 °C; O2 as co-substrate; substrate range 0-100 mM; V111G is misprinted V11G in parts of the text
T1 construct: gene CHLRE_03g171300v5

purified protein = substrate: O=C(O)CO; assay: purified protein; details: 10 mM phenylhydrazine, 100 mM PBS pH 6.5, 40 °C, O2 as co-substrate, substrate range 0-100 mM

T1 sequence (F8WQN2 whole entry Y27S/V111G, form open): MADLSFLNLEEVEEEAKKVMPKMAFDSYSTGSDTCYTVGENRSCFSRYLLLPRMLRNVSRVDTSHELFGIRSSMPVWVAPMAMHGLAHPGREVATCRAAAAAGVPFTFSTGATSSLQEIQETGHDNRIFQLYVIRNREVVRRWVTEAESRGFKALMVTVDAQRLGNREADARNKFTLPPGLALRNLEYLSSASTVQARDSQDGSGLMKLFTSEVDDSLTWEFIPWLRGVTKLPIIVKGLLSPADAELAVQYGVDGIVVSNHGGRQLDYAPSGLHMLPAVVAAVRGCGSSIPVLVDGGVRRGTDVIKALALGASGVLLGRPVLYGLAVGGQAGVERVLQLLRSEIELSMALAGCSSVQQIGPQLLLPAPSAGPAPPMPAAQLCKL

Km [1]: 600 ± 40 µM
Molecule: O=C(O)CO [sodium glycolate]

B1: GST-GSG-CreGO (glycolate oxidase CreGO) (Chlamydomonas reinhardtii) (protein)
chain: MADLSFLNLEEVEEEAKKVMPKMAFDYYSTGSDTCYTVGENRSCFSRYLLLPRMLRNVSRVDTSHELFGIRSSMPVWVAPMAMHGLAHPGREVATCRAAAAAGVPFTFSTVATSSLQEIQETGHDNRIFQLYVIRNREVVRRWVTEAESRGFKALMVTVDAQRLGNREADARNKFTLPPGLALRNLEYLSSASTVQARDSQDGSGLMKLFTSEVDDSLTWEFIPWLRGVTKLPIIVKGLLSPADAELAVQYGVDGIVVSNHGGRQLDYAPSGLHMLPAVVAAVRGCGSSIPVLVDGGVRRGTDVIKALALGASGVLLGRPVLYGLAVGGQAGVERVLQLLRSEIELSMALAGCSSVQQIGPQLLLPAPSAGPAPPMPAAQLCKL
Km (purified protein): 1.0 ± 0.05 mM
Vmax (purified protein): 7.2 µmol/min/mg
kcat (purified protein): 4.9 s⁻¹
kcat/Km (purified protein): 4900 M⁻¹ s⁻¹
